Experimental data taken from patent publication US10774143 (LA JOLLA INSTITUTE FOR ALLERGY AND IMMUNOLOGY, dated 2020).
Each block holds one molecule with its values, some of them ahead of it.

Assays:
[1] = biological target: SWAP-70-like adaptor of T cells (SLAT), endogenous mouse protein (mouse) (UniProt Q8C2K1); test: cell-based or functional assay
[2] = biological target: SWAP-70-like adaptor of T cells (SLAT), endogenous mouse protein (mouse) (UniProt Q8C2K1); test: co-IP of SLAT and IP3R1 from CD4+ T cells pre-incubated with TAT protein, densitometry against control TAT-HA
[3] = biological target: T1, Flag-tagged IP3R1-f2.1 (residues 346-490) (Homo sapiens (Human), UniProt Q14643 346-490); test: co-IP from Jurkat-TAg cells cotransfected with Flag-IP3R1-f2.1
T1 construct: not shown: Flag tag

Molecule: TAT-HA-2.1 Δ18 fusion protein (TAT-HA fused to IP3R1 residues 346-490 deleted of residues 400-417) (from UniProt Q14643 346-490)
anti-CD3/CD28-stimulated IFNγ production by CD4+ T cells (ELISA), reduction [1]: 15 to 20%
percent reduction of the SLAT-IP3R1 interaction [2]: 20%

binding result [3]: binds
B1: Myc-tagged SLAT putative EF-hand domain (other)
chain: MALRKELLKSIWYAFTALDVEKSGKVSKSQLKVLSHNLYTVLHIPHDPVALEEHFRDDDDGPVSSQGYMPYL
notes: not shown: Myc tag downstream of the insert (pEF-Myc-His A/C vector)
